In PMC2978359:

Key:
[1] = molecular target: T1, MBD of MeCP2 (wild type) (human/mouse (residues 76-167 identical), UniProt P51608 76-167); assay: EMSA
[2] = molecular target: T1, MBD of MeCP2 (wild type); assay: EMSA/T4 endonuclease V
[3] = molecular target: T1, MBD of MeCP2 (wild type); assay: EMSA; remark: listed apart in the source
[4] = molecular target: T1, MBD of MeCP2 (wild type); assay: EMSA/T4 endonuclease V; remark: listed apart in the source
[5] = molecular target: T1, MBD of MeCP2 (wild type); assay: EMSA; remark: listed apart in the source

T1 sequence (P51608 76-167): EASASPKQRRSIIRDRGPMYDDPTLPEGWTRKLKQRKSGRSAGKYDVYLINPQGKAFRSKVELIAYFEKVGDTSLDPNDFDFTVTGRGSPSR

B1: TmCG•mCGA duplex (dsDNA)
DNA 1: TAGAAGAATTTCGTTCCAGA
DNA 2: TCTGGAACGAAATTCTTCTA
modifications: 5-methyl-dC at strand 1 pos 12 and strand 2 pos 8
- Kd [1]: 35 ± 9 nM
- Kd [2]: 75 ± 35 nM

B2: CmCG•mCGG duplex (BDNF promoter III) (dsDNA)
DNA 1: TAGAAGAATTCCGTTCCAGA
DNA 2: TCTGGAACGGAATTCTTCTA
modifications: 5-methyl-dC at strand 1 pos 12 and strand 2 pos 8
- Kd [3]: 12.5 ± 3.5 nM
- Kd [2]: 46 ± 26 nM

B3: C=mCG•mCGG CPD duplex (dsDNA)
DNA 1: TAGAAGAATTCCGTTCCAGA
DNA 2: TCTGGAACGGAATTCTTCTA
modifications: 5-methyl-dC at strand 1 pos 12 and strand 2 pos 8; cis-syn CPD between C11 and mC12
- Kd [4]: 11 ± 3 nM

B4: CmCG•mCGG in AT tract (dsDNA)
DNA 1: TTATTTTTATCCGTTTTTAATTAT
DNA 2: ATAATTAAAAACGGATAAAAATAA
modifications: 5-methyl-dC at strand 1 pos 12 and strand 2 pos 12
- Kd [5]: ~15 nM

B5: T=TTmCG•mCGAAA CPD duplex (dsDNA)
DNA 1: TAGAAGAATTTCGTTCCAGA
DNA 2: TCTGGAACGAAATTCTTCTA
modifications: 5-methyl-dC at strand 1 pos 12 and strand 2 pos 8; cis-syn CPD between T9 and T10
- Kd [4]: 47 ± 14 nM

B6: CTG•mCGG single-mismatch duplex (dsDNA)
DNA 1: TAGAAGAATTCTGTTCCAGA
DNA 2: TCTGGAACGGAATTCTTCTA
modifications: 5-methyl-dC at strand 2 pos 8
- Kd [1]: 66 ± 22 nM

B7: T=TmCG•mCGAA CPD duplex (dsDNA)
DNA 1: TAGAAGAATTTCGTTCCAGA
DNA 2: TCTGGAACGAAATTCTTCTA
modifications: 5-methyl-dC at strand 1 pos 12 and strand 2 pos 8; cis-syn CPD between T10 and T11
- Kd [4]: 13 ± 3 nM
